Reference: US20250108100A1, “C-TERMINAL FRAGMENT OF APOLIPOPROTEIN E AND APPLICATION THEREOF IN INHIBITING y-SECRETASE ACTIVITY” (SYNPHATEC (SHANGHAI) BIOPHARMACEUTICAL TECHNOLOGY CO., LTD., priority 2022, published 2025)
Entries after “also recorded” stand apart in the source; their conditions may differ.

Columns and labels:
[1] = test system: APPSW; assay: Aβ40 produced by Swedish APP mutant (APPSW) in HEK 293T cells (ELISA); assay type: cell-based, human; settings: HEK 293T cells expressing APPSW
Protocol: 48 hours after transfection of HEK 293T cells and N2A cells, or 4.5 days after lentivirus infection of neurons, media and lysates were collected. Aβ40 and Aβ42 in the culture medium and cell lysates were detected by an Aβ ELISA kit as indicated in the protocol. (Invitrogen Technology; KHB3481 for human Aβ40, KHB3441 for human Aβ42 and KMB3481 for mouse Aβ40).

[2] = test system: APPΔΔICD; assay: Aβ40 produced from APPΔΔICD co-expressed with BACE1 in HEK 293T cells (ELISA); assay type: cell-based, human
Protocol: The experiment was performed according to the standard procedure in the ELISA analysis kit of Invitrogen Company. • a) The target protein was expressed in HEK 293T cell line. Cells were subcultured one day before transfection, and transfection was performed when the degree of cell adhesion reached 70%-80%. […]
48 hours after transfection of HEK 293T cells and N2A cells, or 4.5 days after lentivirus infection of neurons, media and lysates were collected. Aβ40 and Aβ42 in the culture medium and cell lysates were detected by an Aβ ELISA kit as indicated in the protocol. […]

[3] = test system: N100 (NOTCH fragment); assay: γ-cleavage of NOTCH fragment N100 in HEK 293T cells co-expressing γ-secretase (Western blot); assay type: cell-based; settings: N100-V5 and γ-secretase, PF03084014 at 1 uM
Protocol: (§1) Plasmids were transfected in HEK 293T or N2A cells for 36-48 hours and then lysed in cell lysis buffer [10% 1M tris-HCl (pH=6.8), 4% SDS, 20% glycerol, 0.01% bromophenol blue]. Lysates were shaken at room temperature for 10 min, then boiled for 10 min, and centrifuged at 12,000×g for 10 min. Proteins were run on 8% or 12% Tris-glycine SDS-PAGE and transferred to PVDF membranes (Life Technologies). Samples were incubated overnight at 4° C. with primary antibody diluted in 5% BSA buffer (in 1×TBST). After washing 3 times with 1×TBST, they were incubated with secondary antibody diluted in 5% BSA buffer (in 1×TBST) for 2 hours at room temperature. Finally, after washing 3 times with 1×TBST, the signal was detected by ECL Western blotting substrate (Solarbio, PE0010).

[4] = test system: APP co-expressed in mouse neuron cell line N2A; assay: α-CTF produced by APP co-expressed in N2A cells (Western blot); assay type: cell-based
Protocol: as §1
Data were analyzed by GraphPad Prism software (v6) using unpaired, paired, or one-sample t-tests. Aβ40 and Aβ42 levels were normalized to the corresponding GFP controls. α-CTF levels were normalized to FL-APP and corresponding GFP controls. All data are represented as mean±SEM. Statistical significance was defined as p<0.05. One, two, three and four stars (*) in the graph indicate p-values <0.05, <0.01, <0.001 and <0.0001, respectively.

[5] = test system: γ-secretase (PS1, PS2) knockout HEK 293T cells; assay: PS1 KO, PS2 KO and PS1/2 dKO HEK 293T cell lines: α-CTF and Aβ40; assay type: cell-based, human
Protocol: • a) A plasmid expressing the target protein in mammalian cells was constructed, and the protein expression promoter is CAG. • b) The target protein was expressed in HEK 293T cell line. Cells were subcultured one day before transfection, and transfection was performed when the degree of cell adhesion reached 70%-80%. The transfection reagent was lipofectamine2000 (ThermoFisher). • c) 4-6 hours post transfection, the medium were replaced with fresh cell culture medium. • d) 36-48 hours post transfection, the cells were lysed (10% 1M tris-HCl (pH=6.8), 4% SDS, 20% glycerol, 0.01% bromophenol blue), and the protein samples were collected and used for Western blot or stored in a −80° C. freezer. • e) Polyacrylamide gel electrophoresis. Before protein loading, the protein was boiled at 98° C. for 10 min, and then centrifuged at 12000 rpm for 10 min. Electrophoresis: 80V for the upper stacking gel; 120V for the lower separating gel. • f) Protein transfer. The filter paper was soaked in the electrophoresis solution before use, and the PVDF membrane was put in methanol for 10s to activate, and the gel after electrophoresis was taken out from the electrophoresis tank, put in the order of filter paper—PVD membrane—gel-filter paper from bottom to top, and they were put into the transfer instrument, with transferring in constant current at 0.1 A for 70 min. • g) Blocking and antibody incubation: the transferred PVDF membrane was placed in 5% BSA/TBST blocking solution, and blocked on a shaker at room temperature for 1 hour. The primary antibody was used to incubate at 4° C. overnight on a shaker (12-16 h); 1×TBST was used to wash three times, once every 10 minutes; the secondary antibody was used to incubate, shaked at room temperature for 1-2 h; 1×TBST was used to wash three times, once every 10 minutes. • h) Imaging by development: development was performed with ECL chemiluminescence hypersensitive chromogenic reagent.
The experiment was performed according to the standard procedure in the ELISA analysis kit of Invitrogen Company. • a) The target protein was expressed in HEK 293T cell line. Cells were subcultured one day before transfection, and transfection was performed when the degree of cell adhesion reached 70%-80%. The transfection reagent was lipofectamine2000 (ThermoFisher). • b) 4-6 hours post transfection, medium were replaced with fresh cell culture medium. • c) 36-48 hours post transfection, the cell culture medium was collected, and then the ELISA process was performed or the cell culture medium was frozen in a −80° C. refrigerator. • d) 50 μl of standard samples and experimental samples were added to each well of the 96-well plate. • e) 50 μl of human-derived Aβ40 or Aβ42 or mouse-derived Aβ40 detection antibody was added to each well of the 96-well plate. • f) The above samples were shaken gently and placed at room temperature for 3 hours. • g) The liquid in the well were removed, and the plate was washed 4 times with 1× wash buffer. • h) 100 μl of the buffer containing 1× anti-Rabbit IgG HRP was added. • i) The plate was shaken gently and placed at room temperature for […]. • j) The liquid in the well were removed, and the well was washed 4 times with 1× wash buffer. • k) 100 μl of Stabilized Chromogen was added to each well, and the plate was placed in the dark for 30 minutes at room temperature. • l) 100 μl of Stop Solution was added to each well. • m) The absorbance at 450 nm was measured with a microplate reader. 2.4 qRT-PCR […]

B1: ApoE CT: C-terminal fragment of ApoE, positions 216-299 of SEQ ID NO: 12; SEQ ID NO: 33 (protein)
chain: ARMEEMGSRTRDRLDEVKEQVAEVRAKLEEQAQQIRLQAEAFQARLKSWFEPLVEDMQRQWAGLVEKVQAAVGTSAAPVPSDNH
For B1, the “Aβ40 in cell lysates, reduced by” value [1] was “approximately 43%”, the “Aβ40 in the medium, reduced by” value [1] was “approximately 76%” and the “Aβ40 produced by APPΔΔICD” value [2] was “no longer reduces Aβ produced by APPΔΔICD; also recorded: does not affect Aβ40; also recorded: failed to reduce Aβ40”. The “γ-secretase-dependent reduction of N100” value [3] was “failed to suppress”, the “level of α-CTF compared with ApoE2” value [4] was “significantly increases the level of α-CTF” and the “α-CTF produced by co-expressed APP” value ([4]; Western blot, vs GFP control) was “significantly increases α-CTF”. The “Aβ40 in PS1/2 dKO cells supplemented with PS2” value ([5]; ELISA) was “can reduce Aβ40; also recorded: significantly reduced Aβ40”, the “α-CTF in PS1/2 dKO cells” value ([5]; PS1 and PS2 double knockout HEK 293T cells) was “does not further increase α-CTF; also recorded: did not further increase α-CTF levels” and the “α-CTF in PS1 KO cells” value ([5]; PS1 single knockout HEK 293T cells) was “still able to increase α-CTF”. The “α-CTF in PS2 KO cells” value ([5]; PS2 single knockout HEK 293T cells) was “still able to increase α-CTF” and the “α-CTF in PS1/2 dKO cells supplemented with PS1 or PS2” value ([5]; rescued expression of PS1 or PS2) was “can significantly increase α-CTF; also recorded: again significantly increased α-CTF”.
